Consider 30 sequences from the nanobody polyreactivity screen of Harvey et al. (2022).

The nature of the data set: yeast display, Sf9 membrane polyspecificity reagent, FACS + sequencing; frameworks hold sequencing errors. The essentials:
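Galactose induction of a Saccharomyces cerevisiae BJ5465 synthetic nanobody display library ran 36–48 hours. The cells were then stained for 1 hour at 4 °C with 10% biotinylated, detergent-solubilized Sf9 membrane reagent, pulled down on streptavidin microbeads and FACS-sorted into low and high (top ~1%) gates on expression and reagent-binding fluorescence. Labels for polyreactivity follow the gate of origin.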
On to “QVQLVESGGGLVQAGGSLRLSCAASGSIFAAYTMGWYRQAPGKERELVAAISVSTVSTNYADSVQGRFTISRDNAKNTVFLQMNRLKPEDTAVYYCNADATDSYPEKDEHDSWGQGTEVTVSS”, for which the “polyreactivity (PSR sort gate)” value is given as “low polyreactivity”.

“QVQLVESGGGLVQAGGSLRLSCAASGSIFAAYTMGWYRQAPGKQRELVAAISSGTRTNYADSVKGRFTISRDNAKNTVYLQLNSLKPEDTAVYYWNADVSALWWPEEWYNASEFDYWGQGTQVTVSS”: the “polyreactivity (PSR sort gate)” value is on record as “low polyreactivity”. In the case of “QVQLVESGGGLVQAGGSLRLSCAASGSIFADNAMGWDRQAPGKERELVAAISRTGGSTYYADSVKGRFTISRDNSKNTVYLQMNSLKPEDTAVYYCAADNGYGRYRRYYYWGQGTQVTVSS”, the “polyreactivity (PSR sort gate)” value is on record as “high polyreactivity”. Take “QVQLVESGGGLVQAGGSLRLSCAASGSIFADNGMGWYRQAPGKERELVAAINSGSTYADSVKGRFTISRDNAKNTVYLQMNSLKPEDTAVYYCNADGVTSGRVDYWGQGTQVTVSS”: the “polyreactivity (PSR sort gate)” value is reported as “low polyreactivity”. For the sequence “QVQLVESGGGLVQAGGSLRLSCAASGSIFADYAMGWYRQAPGKERELVAAITASGGTTYYADSVKGRFTISRDNAKNTVYVQMNSLKPEDTAVYYCNAGNRTFLYDRDDYWGQGTQVSVSS”, the “polyreactivity (PSR sort gate)” value is given as “high polyreactivity”. “QVQLVESGGGLVQAGGSLRLSCAASGSIFADYTMGWYRQAPGKERELVAAISSDDSTYYADSVKGRFTISRDNAKNTVYLQMNSLKPEDTAVYYCNDDGSIGPEEYWGQGTQVTVSS”: the “polyreactivity (PSR sort gate)” value is “low polyreactivity”. On to “QVQLVESGGGLVQAGGSLRLSCAASGSIFAFNGMGGYRPAPGKERELVAGITISDSTNYADSVKGRFTISRDNAKNTVSLQMNSLKPEVTAVYYCNADYEQYVYWYWFIKYDYWGQVTQVTVSS”, for which the “polyreactivity (PSR sort gate)” value is “low polyreactivity”. Consider “QVQLVESGGGLVQAGGSLRLSCAASGSIFAFNVMGWYRQAPGKERELVAAITWGGRTYYADSVKGRFTISRDNAKNTVYLQMNSLKPEDTAVYYCAAYPLYRVSHGYEYNYWGQGTQVTVSS”, for which the “polyreactivity (PSR sort gate)” value is on record as “high polyreactivity”. Regarding “QVQLVESGGGLVQAGGSLRLSCAASGSIFAGYAMGWYRQAPGKERELVAAISSSGGRTYYADSVKGRFTISRDNAKNTVYLQMNSLKPVDTAVYYCAVSTYEEEYWGQGTQVTVSS”, the “polyreactivity (PSR sort gate)” value is given as “high polyreactivity”. Under “QVQLVESGGGLVQAGGSLRLSCAASGSIFAHNAMGWSRQAPGKESEMVAAISSGGSTNYADSVKGRFTISRDNAKNTVYLQMNSLKPEDTAVDYCAKSIDGWYWRRRRYDYWGQGTQVTVSS” stands “low polyreactivity”; under “QVQLVESGGGLVQAGGSLRLSCAASGSIFAHYTMGWYRQAPGKERELVASISYRATRTHYADSVKGRFTISRDNAKNTVYLQMNSLKPEDTAVYYCNKGGYPGLQWGNYPPYRSKDDYWGQGTQVTVSS”, “high polyreactivity”; under “QVQLVESGGGLVQAGGSLRLSCAASGSIFAIYAMGWYRQAPGKERELVAAISYGDGSTYYADSVKGRFTISRDNAKNTVYLQMNSLKPEDTAVYYCAVGTRVKYDYWGQGTQVTVSS”, “high polyreactivity”. Consider “QVQLVESGGGLVQAGGSLRLSCAASGSIFAKYAMGWYRQAPGKDREFVAAIRASGGRTYYADSVKGRFTISRDTAKNTVYLQMNSLKPEDSAVYYCNARKYLIPKMDYWGQGTQVTVSS”, for which the “polyreactivity (PSR sort gate)” value is “high polyreactivity”.

As for “QVQLVESGGGLVQAGGSLRLSCAASGSIFAKYAMGWYRQAPGKEREFVAAIRASGGRTYYADSVKGRFTISRDNAKNTVYLKMNSLKPEDTAFYYCASDVSYRAGFDYWGQGTQVTVSS”, the “polyreactivity (PSR sort gate)” value is “high polyreactivity”. The result for “QVQLVESGGGLVQAGGSLRLSCAASGSIFAPNAMGWYRQAPGKERELVAAITYGGGRTYYADSVKGRFTISRDNAKNTVYLQMNSLNPEDTAVYYCNALFSVRGYTWRSAAQDMDYWGQGTQVTVSS” reads “high polyreactivity”.

For the sequence “QVQLVESGGGLVQAGGSLRLSCAASGSIFAPYAMGWYRQAPGKEREFVATITWGGGRTYYADSVKGRFTISRDNAKNTVYLQMNSLKPEDTAVYYCAAAIYYGSLGLFDYWGQGTQVTVSS”, the “polyreactivity (PSR sort gate)” value is recorded as “high polyreactivity”. As to “QVQLVESGGGLVQAGGSLRLSCAASGSIFAPYAMGWYRQAPGKERELVAAISWSGDSTYYADSVKGRFTISRDNAKNTVYLQMNSLKPEDTAVSYCAAAGGFDYDYWGQATQVTVSS”, the “polyreactivity (PSR sort gate)” value is on record as “low polyreactivity”. Take “QVQLVESGGGLVQAGGSLRLSCAASGSIFAQYAMGWYRQAPGKERELVAAISRTGGGTYYADSVKGRFTISRDNAKNTVYLQMNSLKPEDTAVYYCAAVPGLFYLPYDYWGQGTQVTVSS”: the “polyreactivity (PSR sort gate)” value was “low polyreactivity”. In the case of “QVQLVESGGGLVQAGGSLRLSCAASGSIFAQYAMGWYRQAPGKERELVAAITRGGGNTYYADTVKGRFTISRDNAKNTVYLQMNSLKPEDTAVYYCAANRRDGYVYWGQGTQVTVSS”, the “polyreactivity (PSR sort gate)” value was “low polyreactivity”. For the sequence “QVQLVESGGGLVQAGGSLRLSCAASGSIFARYALGWYRQAPGKERELVDAITRSGVSTYSADSVKGRFTISRDNAKNTVYLQMNSLKPEDTAVYYCNADYPIRSSPYGYYYWGQGTQVTVSS”, the “polyreactivity (PSR sort gate)” value is “high polyreactivity”. With “QVQLVESGGGLVQAGGSLRLSCAASGSIFASNTMGWSRQATGKERELVAGITKIGSSTYYADSVKGRFTISRDNAKNTVYLQMNSLKPEDTEVYYCNAYGPNIYSSRYDYWGQGTQVTVSS”, the “polyreactivity (PSR sort gate)” value was “low polyreactivity”. Consider “QVQLVESGGGLVQAGGSLRLSCAASGSIFASYAMGWYRQAPGKERELVAAISDGGGRTYYADSVKGRFTISRDNAKNTVYLQMNSLKPEDTAVYYCAAYAVYTYRRARGYWGQGTQVTVSS”, for which the “polyreactivity (PSR sort gate)” value is given as “high polyreactivity”. On to “QVQLVESGGGLVQAGGSLRLSCAASGSIFASYAMGWYRQAPGKERELVAAISQNGSRTYYAVSVKGRFTISRDNAKYTVYLQMNSLKPEDTAVYYCAVLSRQYFRYGYDYWGQGTQVTVSS”, for which the “polyreactivity (PSR sort gate)” value is reported as “high polyreactivity”. As to “QVQLVESGGGLVQAGGSLRLSCAASGSIFASYAMGWYRQAPGKERELVAAISRSGTSTRYADSVKGRFTISRDNAKNTVYLQMNSLKPEDTAVYYCAARWYVFFRKYDYWGQGTQVTVSS”, the “polyreactivity (PSR sort gate)” value is “high polyreactivity”. For the sequence “QVQLVESGGGLVQAGGSLRLSCAASGSIFATYAMGWYIQAPGKERELVASITTDGSTHYADSVKGRFTISRDNAKNTVYLQMNSLKPEDTAVYYCNTETGPSPVPVYDTEFDSWGQGTQVTVSS”, the “polyreactivity (PSR sort gate)” value is listed as “low polyreactivity”. For the sequence “QVQLVESGGGLVQAGGSLRLSCAASGSIFAVNAMGLYRQAPGKERELVATITGRDGSTYYADSVKGRFTISRDNAKNTVYLQMNRLKPEDTAVYYCTARRKRTYDYWGQGTQVTVSS”, the “polyreactivity (PSR sort gate)” value is on record as “high polyreactivity”. Regarding “QVQLVESGGGLVQAGGSLRLSCAASGSIFAWYAMGRYRQAPGKEMELVAAIRYRGDGTYYADSVKGRFTISRDNAKNTVYLQMNSLKPEDTAVYYCAADSRVYRGGYIYRYGYWGQGTQVTVSS”, the “polyreactivity (PSR sort gate)” value is given as “low polyreactivity”. The result for “QVQLVESGGGLVQAGGSLRLSCAASGSIFAYNAMGWYRQAPGKERELVAAITGSGGSTDYADSVKGRFTISRDNAKNTVYLQMNSLKPEDTAVYYCNADWWSEWKLYDYWGQGTQVTVSS” reads “low polyreactivity”; that for “QVQLVESGGGLVQAGGSLRLSCAASGSIFAYNAMGWYRQAPGKERELVAGISSRGGRTYYADSVKGRFTISRDNAKNTVYLQKNSLKPEDTAVYNCNKRSVPGTYYPTPVRYKYDYWGQGTQVTVSS”, “high polyreactivity”; that for “QVQLVESGGGLVQAGGSLRLSCAASGSIFAYYAMGWYRQAPGKERDLVAAISYSGDGTYYADSVKGRFTISRDNAKNTVYLQMNSLKREDTAVYYCATQIYPLDFYQGDWNDYWGQGTQVTVSS”, “low polyreactivity”.
